Data from the supplement of paper PMC10567573.

B1: INTS3 (parent)
chain: AQLQALRQKEVDFCISLLRERFME

Variants of: B1
Assay: protein stability index of a GFP-peptide fusion (GPS, HEK-293T) (PSI 1-6); higher = more stable
Conditions: c terminus: a fixed tail appended
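Further: lentivirally expressed fusions sorted by FACS into six bins by GFP to DsRed ratio, PSI derived from sequencing read proportions per bin multiplied by bin number.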

Compared with R7H, Q4V is higher in protein stability index: 2.84 for the first, 2.98 for the second.

First: R19G
Second: M23S
The protein stability index of the first is lower: 1.37 for the first, 1.42 for the second.

Going from R7W to C14N, the protein stability index falls from 2.6 to 1.52.

Compared with K9G, L17P is lower in protein stability index: 2.51 for the first, 2.16 for the second.

Compared with Q2R, V11P is lower in protein stability index: 4.11 for the first, 2.7 for the second.

First: E20C
Second: E10L
The protein stability index of the first is lower: 2.38 for the first, 3.79 for the second.

First: L3K
Second: L18R
The protein stability index of the first is lower: 1.5 for the first, 2.2 for the second.

First: M23A
Second: L3A
The protein stability index of the first is higher: 2.78 for the first, 2.15 for the second.

Going from E10R to E20R, the protein stability index rises from 2.09 to 2.49.

Compared with M23N, K9M is higher in protein stability index: 2.55 for the first, 2.65 for the second.

Going from Q8I to R7N, the protein stability index falls from 3.36 to 2.35.

First: F13K
Second: K9S
The protein stability index of the first is higher: 2.9 for the first, 2.29 for the second.

First: R19Q
Second: I15H
The protein stability index of the first is higher: 2.74 for the first, 2.37 for the second.

First: K9C
Second: L17D
The protein stability index of the first is higher: 2.98 for the first, 2.56 for the second.

Compared with E24A, K9L is lower in protein stability index: 3.89 for the first, 2.48 for the second.

Compared with K9H, F22R is lower in protein stability index: 3.64 for the first, 2.1 for the second.

Compared with V11H, F22A is lower in protein stability index: 3.66 for the first, 1.45 for the second.

First: A1K
Second: L17S
The protein stability index of the first is higher: 2.62 for the first, 1.22 for the second.

Going from F22P to R21N, the protein stability index rises from 1.67 to 2.7.

First: V11E
Second: V11F
The protein stability index of the first is higher: 2.54 for the first, 2.1 for the second.

First: F22G
Second: D12W
The protein stability index of the first is lower: 1.17 for the first, 3.08 for the second.

First: L17H
Second: L6N
The protein stability index of the first is lower: 1.65 for the first, 1.97 for the second.

First: F13H
Second: F22H
The protein stability index of the first is higher: 1.95 for the first, 1.18 for the second.

Compared with S16F, S16N is lower in protein stability index: 4.27 for the first, 3.32 for the second.

First: L6G
Second: A5R
The protein stability index of the first is lower: 1.98 for the first, 2.15 for the second.

Going from E10S to Q8G, the protein stability index falls from 3.14 to 2.55.

Going from L18M to L6C, the protein stability index falls from 3.87 to 3.33.

Going from V11C to R7K, the protein stability index rises from 1.29 to 2.71.

Compared with R7F, D12K is lower in protein stability index: 2.46 for the first, 1.98 for the second.

First: E24I
Second: L17W
The protein stability index of the first is higher: 2.7 for the first, 2.46 for the second.

First: I15K
Second: V11G
The protein stability index of the first is higher: 2.17 for the first, 1.72 for the second.

Going from F13W to Q4E, the protein stability index falls from 3.65 to 2.81.

Going from V11Y to C14L, the protein stability index rises from 2.73 to 2.93.

Going from V11T to L3I, the protein stability index rises from 1.81 to 2.87.

First: M23P
Second: Q4H
The protein stability index of the first is lower: 1.79 for the first, 3.32 for the second.

Compared with C14R, F22M is higher in protein stability index: 2.16 for the first, 3.62 for the second.

Compared with L6T, L18E is higher in protein stability index: 1.86 for the first, 2.57 for the second.

First: L6Y
Second: I15T
The protein stability index of the first is higher: 2.57 for the first, 2.07 for the second.

Going from A5T to E10A, the protein stability index rises from 1.65 to 2.86.

First: Q2T
Second: E20K
The protein stability index of the first is higher: 3.02 for the first, 2.09 for the second.

First: M23K
Second: R19K
The protein stability index of the first is higher: 2.84 for the first, 1.2 for the second.

Going from Q4G to E10C, the protein stability index falls from 2.13 to 1.02.

First: A1Q
Second: L6Q
The protein stability index of the first is higher: 2.43 for the first, 2.02 for the second.

Compared with L6K, A5K is lower in protein stability index: 2.31 for the first, 1.92 for the second.

Going from S16R to A1D, the protein stability index falls from 3.39 to 2.11.

First: E20L
Second: F22E
The protein stability index of the first is higher: 2.34 for the first, 2.16 for the second.

Compared with Q4P, L18Q is higher in protein stability index: 1.5 for the first, 3.04 for the second.

Compared with L6W, D12G is higher in protein stability index: 1.73 for the first, 2.1 for the second.

Going from F22K to L17E, the protein stability index rises from 1.92 to 2.06.

First: D12E
Second: R21A
The protein stability index of the first is higher: 2.45 for the first, 2.41 for the second.

First: L3Q
Second: Q4C
The protein stability index of the first is lower: 1.78 for the first, 1.93 for the second.

Compared with L17A, R19L is lower in protein stability index: 2.03 for the first, 2.02 for the second.

Going from L18K to F22W, the protein stability index rises from 2.34 to 3.21.

First: M23T
Second: R7D
The protein stability index of the first is higher: 1.85 for the first, 1.65 for the second.

Going from R7V to R7L, the protein stability index rises from 1.74 to 2.24.

First: I15Q
Second: R21D
The protein stability index of the first is higher: 1.77 for the first, 1.14 for the second.

First: L6F
Second: E20G
The protein stability index of the first is lower: 2.59 for the first, 3.34 for the second.

Compared with E20M, Q4R is lower in protein stability index: 2.92 for the first, 2.3 for the second.

Going from Q4I to R19P, the protein stability index falls from 3.2 to 2.21.

Compared with Q2F, I15P is lower in protein stability index: 2.63 for the first, 2.07 for the second.

First: L3D
Second: Q4F
The protein stability index of the first is lower: 1.81 for the first, 1.83 for the second.

Going from Q2H to K9W, the protein stability index falls from 4.58 to 1.45.

Going from Q8T to L17G, the protein stability index falls from 3.06 to 2.3.

Compared with Q2M, E10P is lower in protein stability index: 3.7 for the first, 2.72 for the second.

Going from Q4S to R19N, the protein stability index rises from 1.55 to 3.64.

First: R7S
Second: Q8P
The protein stability index of the first is higher: 2.93 for the first, 1.22 for the second.

Compared with R21G, L3E is lower in protein stability index: 2.99 for the first, 2.21 for the second.

Going from I15R to D12H, the protein stability index rises from 1.71 to 3.57.

First: A5C
Second: M23Q
The protein stability index of the first is higher: 3.02 for the first, 1.03 for the second.

Compared with A5V, F13Q is higher in protein stability index: 1.04 for the first, 1.82 for the second.

Compared with E10N, A1V is higher in protein stability index: 1.32 for the first, 2.85 for the second.

Going from A1R to A1C, the protein stability index rises from 2.08 to 3.01.

Compared with V11K, L3G is higher in protein stability index: 1.7 for the first, 2.11 for the second.

Going from S16K to Q8N, the protein stability index rises from 1.65 to 2.37.

Going from M23G to A1T, the protein stability index rises from 1.9 to 3.13.

Compared with R19Y, V11R is lower in protein stability index: 2.94 for the first, 1.99 for the second.

Going from Q8R to F13C, the protein stability index rises from 1.91 to 3.42.

First: I15N
Second: Q4L
The protein stability index of the first is higher: 2.46 for the first, 2.45 for the second.

Compared with E10Y, V11M is higher in protein stability index: 1.49 for the first, 3.61 for the second.

Going from K9P to L17V, the protein stability index rises from 2.91 to 3.89.

Going from L18S to F13A, the protein stability index falls from 1.87 to 1.09.

Going from C14S to R7G, the protein stability index rises from 2.02 to 4.64.

Going from R7T to F13I, the protein stability index falls from 3.43 to 2.49.

In the case of R21W, the protein stability index is reported as 2.68.
